Target: the molecule itself
Assay: native gel or EMSA; 10% native-PAGE of purified recombinant AtAPX1 (total protein, SEC fractions F1-F3, and protein treated with GSNO, NaHS or SIN-1)

B1: Cytosol type APX1 from Arabidopsis thaliana (AtAPX1), recombinant (enzyme, UniProt Q05431 1-250, looked up)
chain: MTKNYPTVSEDYKKAVEKCRRKLRGLIAEKNCAPIMVRLAWHSAGTFDCQSRTGGPFGTMRFDAEQAHGANSGIHIALRLLDPIREQFPTISFADFHQLAGVVAVEVTGGPDIPFHPGREDKPQPPPEGRLPDATKGCDHLRDVFAKQMGLSDKDIVALSGAHTLGRCHKDRSGFEGAWTSNPLIFDNSYFKELLSGEKEGLLQLVSDKALLDDPVFRPLVEKYAADEDAFFADYAEAHMKLSELGFADA
notes: Ascorbate peroxidase 1, cytosolic (AtAPX1), Arabidopsis thaliana; 27 kDa on SDS-PAGE; Heme enzyme; also called ascorbate peroxidase 1; recombinant AtAPX1 protein; source: E. coli BL21 (DE3), pET28a, purified (Ni-NTA, thrombin cleavage of the His-tag, SEC)
stoichiometry N: 2

B2: Tyrosine-nitrated recombinant AtAPX1 (SIN-1-treated) (enzyme, Arabidopsis thaliana, UniProt Q05431 1-250, looked up)
chain: MTKNYPTVSEDYKKAVEKCRRKLRGLIAEKNCAPIMVRLAWHSAGTFDCQSRTGGPFGTMRFDAEQAHGANSGIHIALRLLDPIREQFPTISFADFHQLAGVVAVEVTGGPDIPFHPGREDKPQPPPEGRLPDATKGCDHLRDVFAKQMGLSDKDIVALSGAHTLGRCHKDRSGFEGAWTSNPLIFDNSYFKELLSGEKEGLLQLVSDKALLDDPVFRPLVEKYAADEDAFFADYAEAHMKLSELGFADA
modifications: tyrosine nitration (SIN-1 treatment); positions not determined in this paper
notes: Ascorbate peroxidase 1, cytosolic (AtAPX1), Arabidopsis thaliana; same construct as m1; also called SIN-1-treated protein; source: E. coli BL21 (DE3), purified, then incubated with SIN-1 (0-10 mM) at 37°C for 1 h in the dark
binding result: binds

B3: S-sulfhydrated recombinant AtAPX1 (NaHS-treated) (enzyme, Arabidopsis thaliana, UniProt Q05431 1-250, looked up)
chain: MTKNYPTVSEDYKKAVEKCRRKLRGLIAEKNCAPIMVRLAWHSAGTFDCQSRTGGPFGTMRFDAEQAHGANSGIHIALRLLDPIREQFPTISFADFHQLAGVVAVEVTGGPDIPFHPGREDKPQPPPEGRLPDATKGCDHLRDVFAKQMGLSDKDIVALSGAHTLGRCHKDRSGFEGAWTSNPLIFDNSYFKELLSGEKEGLLQLVSDKALLDDPVFRPLVEKYAADEDAFFADYAEAHMKLSELGFADA
modifications: S-sulfhydration of cysteine (NaHS treatment); positions not determined in this paper
notes: Ascorbate peroxidase 1, cytosolic (AtAPX1), Arabidopsis thaliana; same construct as m1; not mapped here; also called NaHS-treated AtAPX1; source: E. coli BL21 (DE3), purified, then incubated with NaHS (10 nM-100 μM) at 4°C for 30 min in the dark
binding result: binds

B4: S-nitrosylated recombinant AtAPX1 (GSNO-treated) (enzyme, Arabidopsis thaliana, UniProt Q05431 1-250, looked up)
chain: MTKNYPTVSEDYKKAVEKCRRKLRGLIAEKNCAPIMVRLAWHSAGTFDCQSRTGGPFGTMRFDAEQAHGANSGIHIALRLLDPIREQFPTISFADFHQLAGVVAVEVTGGPDIPFHPGREDKPQPPPEGRLPDATKGCDHLRDVFAKQMGLSDKDIVALSGAHTLGRCHKDRSGFEGAWTSNPLIFDNSYFKELLSGEKEGLLQLVSDKALLDDPVFRPLVEKYAADEDAFFADYAEAHMKLSELGFADA
modifications: S-nitrosylation of cysteine (GSNO treatment); positions not determined in this paper
notes: Ascorbate peroxidase 1, cytosolic (AtAPX1), Arabidopsis thaliana; same construct as m1; not mapped here; also called S-nitrosylated APX1; GSNO-treated AtAPX1; source: E. coli BL21 (DE3), purified, then incubated with GSNO (0-1 mM) at 25°C for 30 min in the dark
binding result: binds

Source: PMC8236860, “Regulation of Dual Activity of Ascorbate Peroxidase 1 From Arabidopsis thaliana by Conformational Changes and Posttranslational Modifications” (Frontiers in Plant Science, 2021)
